Data on 1 molecule can be found in patent publication US20090099072A1 (LES LABORATOIRES SERVIER, published 2009).

In one experiment the target is T1, Bcl-XL (UniProt Q07817-1 1-209).
T1 construct: also called anti-apoptotic member of the Bcl-2 protein family
The experiment can be described thus: fluorescence polarisation competition; tracer Bak BH3 carboxyfluorescein 15 nM, Bcl-XL 100 nM. How it is done:
(§1) The following reagents are mixed together in the order stated: [0089] a) competitor peptide at a final concentration of from 1 nM to 100 μM; [0090] b) fluorescent peptide ligand (Bak BH3 carboxyfluorescein) at a final concentration of 15 nM; [0091] c) anti-apoptotic member of the Bcl-2 protein family at a final concentration of 100 nM for Bcl-XL and of 1 μM for Bcl-2 and Bcl-W.
(§2) The mixture is then incubated for 30 minutes at ambient temperature and the fluorescence polarisation is determined on a Fusion apparatus (Packard) (excitation at 485 nm and reading at 530 nm). The values are given in mP (unit of fluorescence polarisation).

A further experiment deals with T2, Bcl-W (UniProt Q92843-1 1-172, limits assumed).
T2 construct: also called anti-apoptotic member of the Bcl-2 protein family
T2 sequence (looked up): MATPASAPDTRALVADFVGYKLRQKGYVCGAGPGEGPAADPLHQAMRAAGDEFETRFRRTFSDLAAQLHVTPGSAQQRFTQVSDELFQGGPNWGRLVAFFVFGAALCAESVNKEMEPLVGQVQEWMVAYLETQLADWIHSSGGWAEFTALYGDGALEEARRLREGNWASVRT
Put plainly: fluorescence polarisation competition; tracer Bak BH3 carboxyfluorescein 15 nM, Bcl-W 1 µM. Here is the method:
as §1, §2

A further experiment has as its target T3, Bcl-2 (UniProt P10415-1 1-211, limits assumed).
T3 construct: also called anti-apoptotic member of the Bcl-2 protein family
The experiment can be described thus: fluorescence polarisation competition; tracer Bak BH3 carboxyfluorescein 15 nM, Bcl-2 1 µM. Here is the method:
as §1, §2

T3 sequence (P10415 1-211 limits assumed): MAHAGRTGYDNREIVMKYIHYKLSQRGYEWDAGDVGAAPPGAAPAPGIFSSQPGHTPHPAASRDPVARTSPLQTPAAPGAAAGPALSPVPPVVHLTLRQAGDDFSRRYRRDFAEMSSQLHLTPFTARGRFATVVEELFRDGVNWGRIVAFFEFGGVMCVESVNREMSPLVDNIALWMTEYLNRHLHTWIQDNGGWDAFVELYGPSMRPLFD
T1 sequence (Q07817 1-209): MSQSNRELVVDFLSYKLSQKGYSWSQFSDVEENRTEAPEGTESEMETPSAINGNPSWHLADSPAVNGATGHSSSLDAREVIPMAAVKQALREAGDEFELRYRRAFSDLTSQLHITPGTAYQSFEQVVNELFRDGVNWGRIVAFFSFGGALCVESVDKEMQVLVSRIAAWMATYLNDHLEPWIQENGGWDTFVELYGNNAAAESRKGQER

B1: Beclin peptide, motif GTMENLSRRLKVTGDLFDIMSGQTDV of the Beclin protein (peptide)
peptide: GTMENLSRRLKVTGDLFDIMSGQTDV
By Ki is commonly meant the dissociation constant of the complex between target and ligand, obtained from inhibition or displacement. A higher Ki goes with a looser hold on the target. Consider B1, for which the Ki worked out at 1150 nM with Bcl-XL, 7400 nM with Bcl-W and 1800 nM in the experiment with Bcl-2.
